# Assay results from the nanobody polyreactivity screen of Harvey et al. (2022).
# Test: yeast display, Sf9 membrane polyspecificity reagent, FACS + sequencing; frameworks hold sequencing errors
# How it was run: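 Nanobodies came from a synthetic yeast display library in Saccharomyces cerevisiae BJ5465, induced with galactose for 36–48 hours and stained for 1 hour at 4 °C with 10% biotinylated, detergent-solubilized Sf9 membrane reagent. Cells were enriched on streptavidin microbeads and then FACS-sorted, with low and high (top ~1%) gates set on anti-HA fluorescence for expression and streptavidin fluorescence for reagent binding. Each polyreactivity label reflects the gate a clone came from. Genes were amplified by colony PCR, sequenced by MiSeq 2 × 250 and filtered by CDR length.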
row,Sequence,polyreactivity (PSR sort gate)
1,QVQLEESGGGLVQAGGSLRLSCAASGLTFVYNTMGMYRQAPGKERELVAAINWSGGRTYYADSVKGRFTISRDNAKNTVYLQMNSLKPEDTAVYYCAALYVPNTPTYKYDYWGQGTQVTVSS,low polyreactivity
2,QVQLVESGGGLVQAGGSLRLSCAASGSTIRHYAMGWYRQAPGKERELVAAISYSGGSTYYADSVKGRFTISRYNAKNNVYLQMNSLKPEDTAVYYCAARSPSKMGYWGQGTQVTVSS,high polyreactivity
3,QVQLVESGGGLVQAGGSLRLSCAASGFIFIYNAMGWFRQAPGKERELVAAISRTGARTYYADSVKGRFTISRDNAKNTVYLQMNSLKPEDTAVYYCAGGVRTRTEEYDYWGQGTKVTVSS,high polyreactivity
4,QVQLVESGGGLVQAGGSLRLICAASGFTFVANAMGWYRPAPGKERELVAVIDWDEGSTYYADSVKGRFTISRDNAKNTVYLQMNSLKPEETAVYYCNADGYSPDRYDYYYRYYYWGQGTQVTVSS,low polyreactivity
5,KVQLVESGGGLVQAGGSLRLSCAASGSIISPNAMGWYRQAPGKERELVAGITQSGGSTYYADSVKGRFTISRDNAKNTVYLQMNSLKPEDTAVYYCSVDFILGWYSYYYWGQGTQVTVSS,high polyreactivity
6,EVQLVESGGGLVQAGGSLRLSCAAYGSTFSTYAMGWYRQAPGKERELVAAISFGGGSTYADSVKGRFTISRDNAKNTVYLQMNSLKPEDTAVYYCNTDLYLYGWYPRDVQQYAGGDYWGQGTQVTVSS,low polyreactivity
7,QVQHVESGGGLVQAGGSLRLSCAASGSTFGLYAMGWYRQAPGKERELVAAISRRGGSTYYADSVKGRLTISRDNAKNTVYLQMNSLRPVETAVYDCAAVTAYRFDTLGMDYWGQGTQVTVSS,high polyreactivity
8,QVQLVESGRGLVQAGGSLRLSCAASVGTFDKNAMGCYRQAPGNERELVAALTYGGGSTYYADSVKGRFTISRDNAKNTVYLQMNSLKPEDTAVYYCAVAIITYPYATGSSYDYWGQGTQVTVSS,low polyreactivity
9,QVQLVESVGGLVQAGGSLRLSCAASGRTFLRNAMGWYRQAPGKERELVASITSRGGRTYADSVKGRFTISRDNAKNTVYLQMNSLKPEDTAVYYCAARRQAGLRYDYWGQGTQVTVSS,high polyreactivity
10,QVQLVESGGGLVQAGGSLRLSCAASGYTFSRNAMGWYRQAPGKERELVADINYSGGITYYADSVKGRFTISRDNAKNTVYLQMNSLKPEDTAVYYCAAVATNVPTHGRPSRRAYDYWGQGTQVTVSS,low polyreactivity
11,QVQLVESVGGLVQAGGSLRLSCAASGSIFHYNALGWYRPAPGKERELVAAITSGGSTYADSVKGRFTISRDNAKNTVYLQMNSLKPEDTAVYYCNADSVGPRGDLGYWGQGTQVTVSS,low polyreactivity
12,QVQLVESGGGLVQAGGSLRLSCAASGSTYTYALGWSRQAPGKERELVADITQSGGSTYYADSVKGRFTISRDNAKNTVYLQMNSLKTEDTAVYYCNAESRHVFEDEYWGQGTQVTGSS,low polyreactivity
13,QVQLVESGGGLVQAGGSLRLSCAASGGTFYFYAMVWYRQAPGKERELVAAISRSGGSTYYADSVKGRFTISRDNAKNTVYLQMNSLKPEDTAVYYCAARYTGGGIRYDYWGQGTQVTVSS,high polyreactivity
14,QVQLVESGGGLVQAGGSLRLSCAPSGCTLGAYAMGWYRQAPGKVRELVADISSRGASTYYEDSVKGRFTISRDHAKNTVYIQMNSLKPEDTAVYDCARAVYIWYGYGYFPEYEYWGQGTQVTVSS,low polyreactivity
15,QVQLEESWGVLVQAGCSLRISCAASGRIFAYNAMGSYRQAPGKERELVAAISWRVGSTYYADSVKGRFSISRDNAKNTVYLQMNILKPEDTAVYYCAVGYYRFGRVLGYYWGQGTQVSVSS,high polyreactivity
16,QVQLVESGGGLVQAGGSLRLSCAASGITFVYYVMGWYRQAPGKERELVAGISSGGSTYYADSVKGRFTISRDNAKNTVYLQMNSLKPEDTAVYYCAAVSTPYYGHVKRYYYWGQGTQVTVSS,high polyreactivity
17,QVKLVESGGGLVQAGRSLRLICAASGFTFHYNSMGWYRQAPGKEREFVAAISGSGDRTYYADSGKGRFTISRDNAKNTVYLQMNSLKPEDTAVYYCATSVRQNYFYSYDYWGQGTQVTVSS,high polyreactivity
18,QVQLVESGGGLVQAGGSLRLSCAASGITFGRNTMGWYRQAPGKERELVASINKSGGSTYYADSVKGRFTISRDNAKNTVYLQMNSLKPEDTAVYYCAARTGWPRVGFLYPAHVGFDYWGQGTQVTVSS,low polyreactivity
19,QVQLVETGGGLVQAGGSLRLSCAASGSTFGTYAMGWDRQAPGKERELVAAISSGDSTTYADSVKGRFTISRDNAKNTVYLQMNSLKPEDTAVYYCAARTFLMRNGGYNYWGQGTQVTVSS,low polyreactivity
20,QVQLVESGGGLVQAGGSLRLSCAASGRTFDVYTMGWYRQAPGKERELVAAINGGGSTYYADSVKGRFTISRDNAKNTVYSQMNSLKPEDTAVYYCAAKFRAGRSSYYWGQGTQVTVSS,high polyreactivity
21,QVQLVESGGGLVQAGGSLRLSCAGSGSTFQRYGMGWYRQAPGKEREFVAAISTSGGITYYADSVKGRFTISRDNAKNTVYLQMNSLKPEDTAVYYCAARTARHVRYWAGWRDYWGQGTQVTVSS,high polyreactivity
